{"source": "patent US8119589B2", "about": "“Modulation of CD4+ T cell responses by a tick saliva protein, Salp15 and polypeptides derived therefrom” (University of North Carolina at Charlotte, priority 2004, dated 2012)", "key": {"CD4+ T cells": {"system": "CD4+ T cells", "test": "Actin polymerization (phalloidin488 staining, F-actin immunoblot, flow cytometry) in activated CD4+ T cells", "assay_type": "cell-based, mouse", "conditions": "Salp15 pretreatment; effect seen as early as 1 minute of activation", "method": "For the visualization of lipid rafts, phospho-tyrosine, and cytoskeleton reorganization, CD4^+, CD8^+ or Jurkat cells were cytospun for 10 minutes at 1000 RPM onto positively charged microslides (Fisher Scientific, Hampton, N.H., U.S.A.). The cells were fixed with 3.7% paraformaldehyde (Sigma Chemical Co.) for 15 minutes and stained with CTB594 (Molecular Probes, Eugene, Oreg., U.S.A.), AlexaFluor488 labeled phalloidin (Molecular Probes) or (1:50) biotin-conjugated anti-p-Tyr (PY99) followed by Streptavidin-AlexaFluor594 (1:100, Molecular Probes). […]\n(§1) Actin polymerization assay was performed as described earlier (Krishnan et al., 2004). […] The cells were washed, resuspended in PBS and analyzed for F-actin content on a FACSCalibur with CellQuest software (Beckton Dickinson, Mountain View, Calif., U.S.A.). […] The cells were washed twice with PBS and analyzed by flow cytometry.\nThe amount of F-actin in activated CD4+ T cells in the presence and absence of Salp15 was quantified by ultracentrifugation and Western blotting. […] Equal amounts of total protein were loaded on the SDS-gel based on the total actin determined from a sample of the cell lysate."}, "Jurkat cells": {"system": "Jurkat cells", "test": "Actin polymerization (phalloidin488 staining, F-actin immunoblot) in activated Jurkat cells", "assay_type": "cell-based, human", "conditions": "Salp15 pretreatment", "method": "For the visualization of lipid rafts, phospho-tyrosine, and cytoskeleton reorganization, CD4^+, CD8^+ or Jurkat cells were cytospun for 10 minutes at 1000 RPM onto positively charged microslides (Fisher Scientific, Hampton, N.H., U.S.A.). The cells were fixed with 3.7% paraformaldehyde (Sigma Chemical Co.) for 15 minutes and stained with CTB594 (Molecular Probes, Eugene, Oreg., U.S.A.), AlexaFluor488 labeled phalloidin (Molecular Probes) or (1:50) biotin-conjugated anti-p-Tyr (PY99) followed by Streptavidin-AlexaFluor594 (1:100, Molecular Probes). For p-LAT and p-PLCγ1 staining, fixed cells were treated with PBS containing 0.1% Triton-X 100 and 100 mM glycine for 15 min at room temperature and stained using rabbit p-LAT (Tyr^191) or rabbit anti-p-PLCγ1 (Tyr^783) probed with anti-rabbit IgG488 (Molecular Probes).\nThe amount of F-actin in activated CD4+ T cells in the presence and absence of Salp15 was quantified by ultracentrifugation and Western blotting. CD4^+ T cells were activated as described above for 2 min. Cells were lysed in HEPES buffer containing Triton X-100 (10 mM NaCl, 135 mM KCl, 2 mM MgCl2, 2 mM EGTA, 10 mM HEPES pH 7.15, 1% Triton X-100, 0.01 mg/ml aprotinin, 0.01 mg/ml leupeptin, 1 mM PMSF). […] Equal amounts of total protein were loaded on the SDS-gel based on the total actin determined from a sample of the cell lysate."}, "CD4 on HeLa-CD4 cells": {"biological_target": "T1, CD4 on HeLa-CD4 cells (Homo sapiens, UniProt P01730)", "T1 construct": "host or cells: HeLa", "test": "Salp15488 binding to HeLa-CD4 and HeLa cells (flow cytometry, confocal microscopy)", "method": "For colocalization experiments, Jurkat and CD4^+ T cells were cytospun as described herein. HeLa and HeLa-CD4 cells were grown on chamber slides. The cells were fixed and stained with anti-CD4 and Salp15 as follows. Purified Salp15 was labeled using Alexa-488 with the Protein Labeling Kit (Molecular Probes) according to the manufacturer's instructions. Fixed cells were blocked with 5% normal serum and anti-CD16/CD32 (1:100) in PBS, incubated with 1 μg of monoclonal biotinylated anti-CD4 (L3T4) (BD Biosciences Pharmingen) followed by streptavidin594 staining. The cells were then stained with 20 μg/mL of Salp15488. For competition assays, cells were first blocked with 5% normal serum, incubated with either polyclonal anti-CD4 antibody, MT310, OKT4, normal rabbit IgG, Salp15 (0.5 mg/mL) or lysozyme (0.5 mg/mL) followed by staining with Salp15488. All samples were mounted in a GVA Mount (Zymed, San Francisco, Calif., U.S.A.) and visualized with an Olympus Confocal microscope equipped with Fluoview 3.0 software.\nas §1"}, "sCD4 D1-D4": {"biological_target": "T2, sCD4 D1-D4 (Homo sapiens, UniProt P01730)", "T2 construct": "a sCD4 preparation that contains all four extracellular domains (D1-D4)", "test": "Microtiter binding assay with immobilized sCD4 D1-D4", "conditions": "Salp15 0.4 μM; similar kinetics to D1-D2", "method": "(§2) Purified sCD4 was coated overnight at 4° C. at the indicated concentrations in 0.1M sodium carbonate buffer (pH 9.5) in 96 well plates. Equimolar amounts of lysozyme were used as a non-specific control. The wells were washed, blocked with 10% FCS/PBS for 1 hr at R.T., and incubated with Salp15 (0.4 μM) for 2 hr at 37° C. Salp15 binding was detected by incubation with horseradish peroxidase (HRP)-conjugated anti-His antibody for 1 hr followed by microwell peroxidase substrate (KPL). The reaction was stopped by adding TMB stop solution (KPL). Chemically synthesized overlapping peptides of Salp15 were purchased from GenScript Corporation (Piscataway, N.J., U.S.A). To study the binding of Salp15 and peptides to sCD4, Salp15 (5 μg) and different peptides (0.5 μg) were coated. The wells were washed and blocked prior to incubation with sCD4-HRP (Research Diagnostics Inc., Flanders, N.J., U.S.A.). For competition assays, indicated concentrations of Salp15 or P11 were added to sCD4-HRP and incubated with plate bound P11 (0.1 μg). To estimate the effect of dithiothreitol (DTT) treatment of Salp15 on binding to sCD4, 0.5 μM Salp15 was treated with 10 mM DTT overnight and immobilized onto microtiter plate followed by blocking and incubation with sCD4-HRP."}, "sCD4": {"biological_target": "T3, sCD4 (Homo sapiens, UniProt P01730)", "T3 construct": "the extracellular four domains of CD4 (sCD4); purchased Research Diagnostics Inc., Flanders, N.J., U.S.A", "test": "Competition for sCD4-HRP binding to plate-bound P11", "method": "as §2"}}, "data": [{"substance": "Salp15: secreted salivary protein from Ixodes scapularis, SEQ ID NO: 2; recombinant His-tagged, produced in Drosophila S2 cells", "values": [{"measurement": "Phalloidin488 staining / amount of F-actin", "setting": "CD4+ T cells", "value": "reduced"}, {"measurement": "Phalloidin488 staining / amount of F-actin", "setting": "Jurkat cells", "value": "reduced"}, {"measurement": "Salp15 binding on untransfected HeLa cells", "setting": "CD4 on HeLa-CD4 cells; confocal microscopy", "value": "but not in untransfected cells"}, {"measurement": "Salp15 binding to HeLa-CD4 cells compared to non-transfected controls", "setting": "CD4 on HeLa-CD4 cells; flow cytometry", "value": "increase"}, {"measurement": "Binding to sCD4 D1-D4", "setting": "sCD4 D1-D4", "value": "saturable binding"}, {"measurement": "Competition of P11 binding to sCD4 by increasing concentrations of Salp15", "setting": "sCD4", "value": "could also be competed"}]}]}
